Results published in the nanobody polyreactivity screen of Harvey et al. (2022).

Assay: yeast display, Sf9 membrane polyspecificity reagent, FACS + sequencing; frameworks hold sequencing errors
How it was run: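 A synthetic nanobody library was expressed on Saccharomyces cerevisiae BJ5465 by galactose induction for 36–48 hours. The library was stained for 1 hour at 4 °C with 10% biotinylated, detergent-solubilized Sf9 membrane reagent and enriched with streptavidin microbeads before FACS. Low and high (top ~1%) gates were set on anti-HA fluorescence for expression and streptavidin fluorescence for reagent binding, and each polyreactivity label reflects the gate of origin.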

Row | Sequence | polyreactivity (PSR sort gate)
1 | QVQLVESGGGLVQAGGSLRLSCAASGFIFESNAMGWYRQAPGKERELVAAITKRGGSTYYADSVKGRFTISRDNAKNTVYLQMNSLKPEDTAVYYCARYSSRYSSGYDYWGQGTQVTVSS | high polyreactivity
2 | QVQLVESGGGLVQAGGSLRLSCAASGFIFESTAMGWYRQAPGKERELVAGISNGDSTDYADSVKGRFTISRDNAKNTCYLQMNSLNPEDTAVYYCNAELWYSPYSQTTVRYDYWGQVTQVTVSS | low polyreactivity
3 | QVQLVESGGGLVQAGGSLRLSCAASGFIFEWNGMGWYRQAPGKERELVAAITWSGGSTYYADSVKGRFTISRDNAKNTVYLQMNSLKPEDTAVYYCNAYWKDDFEDGPGRRGMDYWGQGTQVTVSS | low polyreactivity
4 | QVQLVESGGGLVQAGGSLRLSCAASGFIFEWYTMGWYRQAPGKERELVARISSDGSTTYADSVKGRFTISRDNAKNTVYLQMNSLNPEDTAVYYCAADVTYPGLIYIYDYWGQGTQVTVSS | low polyreactivity
5 | QVQLVESGGGLVQAGGSLRLSCAASGFIFEYNAMGWYRQAPGKERELVAAITSSGGSTYYADSVKGRFTISRDNAKNTVYLKMYSLKPEDTAVYYCARVRRSAYYKDYYYWGQGTQVTVSS | high polyreactivity
6 | QVQLVESGGGLVQAGGSLRLSCAASGFIFEYYAMGWYRQAPGKERELVAAISNGGGRTYYADSVKGRFTISRDNAKNTVYLQMNSLKPEDTAVYYCAAYWVYQRNSRTWEYDYWGQGTQVTVSS | high polyreactivity
7 | QVQLVESGGGLVQAGGSLRLSCAASGFIFEYYAMGWYRQAPGKERELVAAISRGGRTNYADSVKGRFTISRDNAKNTVYLQMNSLKPEDTAVYYCARDYTFYRQVRKYGYWGQGTQVTVSS | high polyreactivity
8 | QVQLVESGGGLVQAGGSLRLSCAASGFIFFKYVMGWYRQAPGKERELVAAISTTGGRTYYADSVKGRFTISRDNAKNTVYLQMNSLKPEDTAVYYCAADYPVWNHGFDYWGQGTQVTVSS | high polyreactivity
9 | QVQLVESGGGLVQAGGSLRLSCAASGFIFFQYAMGWYRQAPGKERELVAAISGSGVTTYYADSVKGRFTISRDNAKNTVYLQMKSLKPEDTPVYYCAARPSGRGYYLLGYWGQGTQVTVSS | low polyreactivity
10 | QVQLVESGGGLVQAGGSLRLSCAASGFIFFRNAMGWYRQAPGKERELVAAISSNGGRTYYADSVKGRFTISRDNAKNTVYLQMNSLTPEDTAVYYCAAANPGSEYDYWGQGTQVNVSS | high polyreactivity
11 | QVQLVESGGGLVQAGGSLRLSCAASGFIFFRYAMGWYRQAPGKERELVAAISSSGGSTYYADSVKGRFTISRDNAKNTVYLQMNSLKPEDTAVYYCAAPRYRIFVGLGMDYWGQGTQVTVSS | high polyreactivity
12 | QVQLVESGGGLVQAGGSLRLSCAASGFIFFRYAMGWYRQAPGKERELVAAISTRTGITYYADSVKGRFTISRDNAKNTVYLQMNSLKPEDTAVYYCNVLRSHSLYPFWKYDYWGQGTQVTVSS | high polyreactivity
13 | QVQLVESGGGLVQAGGSLRLSCAASGFIFGANAMGWYRPAPGKESELVAAISWNGGRTYYADSVKWRFTISRDNAKNTVYLQMNSLKPEDTAVSYCAATGWYGLPTSYRVNYWGQGTQVTVSS | high polyreactivity
14 | QVQLVESGGGLVQAGGSLRLSCAASGFIFGANTMGWYRQAPGKERELVATISWSGGSTYYADSVKGRFTISRDNAKNTVYLQMNSLKPEDTAVYYCAAPGVTYGFRSDYWGQGTQVTVSS | low polyreactivity
15 | QVQLVESGGGLVQAGGSLRLSCAASGFIFGAYAMGWYRQAPGKERELVAAITKSGGRTYYADSVKGRFTISRDNAKNTVYLQMNSLKPEDTAVYFCAAVTRYPREYDYWGQGTQVTVSS | high polyreactivity
16 | QVQLVESGGGLVQAGGSLRLSCAASGFIFGAYAMGWYRQAPGKERELVAAITRSGGNTYYADSVKGRFTISRDNAKNTVYLQMNSLKPEDTAVYYCNVVGVYHYEDYYYWGQGTQVTVSS | high polyreactivity
17 | QVQLVESGGGLVQAGGSLRLSCAASGFIFGFYAMGWYRQAPGKERELVAAITSDGGTYYADSVKGRFTISRDNAKNTVYLQMNSLKPEDTAVYYCAADVLYEVFSWYVGYDYWGQGTQVTVSS | low polyreactivity
18 | QVQLVESGGGLVQAGGSLRLSCAASGFIFGGYARGWYRQAPGKEREFVAAIRQRGGSTYYADSVKGRFTISRDNAKNTVYLQMNSLKPEDTAVYYCAAEPNTQWFDYWGQGTQVTVSS | high polyreactivity
19 | QVQLVESGGGLVQAGGSLRLSCAASGFIFGHYVMGWYRQAPGKERELVAAISVGGGRTYYADSVKGRFTISRDNAKNTVYLQMNSLKPEDTAVYYCRSYGYDYWGQGTQVTVSS | high polyreactivity
20 | QVQLVESGGGLVQAGGSLRLSCAASGFIFGKFAMGWYRPAPGKERELVAAITSDGRTYYADSVKGRFTISRDNAKNTVYLQMNSLKPEDTAVYYCAVDYYWYWYSGYDDYWGQGTQVTVSS | high polyreactivity
21 | QVQLVESGGGLVQAGGSLRLSCAASGFIFGNYVLGWSRQAPGKERELVAAISESGSRTYYADSVKGRFTISRDYAKKTVYLQMNSLKPEDTAVYYCAAALFSYYGEYDYWGQGTQVTVSS | low polyreactivity
22 | QVQLVESGGGLVQAGGSLRLSCAASGFIFGPNAMGWYRQAPGKERELVAAISWIGSSTYYADSVKGRFTISRDNAKNTVYFQMNSLKPQDTAVYYCAADSSERRLMDFDYWGQGTQVTVSS | low polyreactivity

Row | Sequence | polyreactivity (PSR sort gate)
23 | QVQLVESGGGLVQAGGSLRLSCAASGFIFGQNDMGWYRQAPGKERELVAAISSDGSTYYADSVKGRFTISRDNAKNTVYLQMNSLKPEDTAVYYCAAEYSWYYYYLYVGEYDYWGQGTQVTVSS | low polyreactivity
24 | QVQLVESGGGLVQAGGSLRLSCAASGFIFGRYAMGWYRQAPGKERELVAAITRSGGTTYYADSVKGRFTISRDNAKKTVYLQMYSLKPEDTAVYYCAAPRIYYTDDYWGQGTQVTVSS | high polyreactivity
25 | QVQLVESGGGLVQAGGSLRLSCAASGFIFGRYTMGWSRQAPGKEGELVAAISGSDVSTYYADSVKGRFTISRDNAKNTVYLQLNSVKPEDTAVYYCAADAPWAYYEYDYWGQGTQVTVSS | low polyreactivity
26 | QVQLVESGGGLVQAGGSLRLSCAASGFIFGSNAMGWYRQAPGKERELVATITKRGGTTYYADSVKGRFTISRDNAKNTVYLQMNSLKPEDTAVYYCNRSGPGFYSTRFNYWGQGTQVTVSS | high polyreactivity
27 | QVQLVESGGGLVQAGGSLRLSCAASGFIFGSYAMGWYRQAPGKERELVAAITSSGITYYADSVKGRFTISRDNAKNTVYLQMNSLKPEDTAVYYCAAEGSTYQGAPGVYYWGQGTQVTVSS | high polyreactivity
28 | QVQLVESGGGLVQAGGSLRLSCAASGFIFGSYTMGGYRQAPGTERELVAVITCSGSSTYYADSVKGRFTISRDNAKNTVYLQMNSLKPADTAVYYCNAVKFGGYDYWGQGTQVTVSS | high polyreactivity
29 | QVQLVESGGGLVQAGGSLRLSCAASGFIFGVYAMGWYRQAPAKERELDAAISYRTGTTYYADSVKGRFTISRDNAKNTVYLQMNSLKPEDTAVYYCAAKSRAAVRKYGSEYWGQGTQVTVSS | high polyreactivity
30 | QVQLVESGGGLVQAGGSLRLSCAASGFIFGVYPMGWYRQAPGKERELVAAISRSGGSTYYADSVKGRFTISRDSAKNTVYLQMNSLNPEDTAVYYCATHVSLYGKGYYYWGQGTQVTVSS | high polyreactivity
31 | QVQLVESGGGLVQAGGSLRLSCAASGFIFGWNAMGWYRQAPGKVREFVAAITSSGTSTYYADSVKGRFTISRDNAKNTVYLQMNSLKPEDTAVYYCAADVIFTWLAYSTEYDYWGQGTQVTVSS | low polyreactivity
32 | QVQLVESGGGLVQAGGSLRLSCAASGFIFGYNAMGWYRQAPGKERELVAAISGSGGRTYYADSVKGRFTISRDNAKNTVYLQMNSLIPEDTAVYYCAVADRRGLGYWGQGTQVTVSS | high polyreactivity
33 | QVQLVESGGGLVQAGGSLRLSCAASGFIFGYNAMGWYRQAPGKERELVASITYRGGRTYADSVKGRFTISRDNAKNTVYLQMNSLKPEDTAVYYCAAVRHVYVGGFDYWGQGTQVTVSS | high polyreactivity
34 | QVQLVESGGGLVQAGGSLRLSCAASGFIFGYYAMGWYRQAPGKEREFVAAISARSGRTYYADSVKGRFTISRDNAKNTVYLQMNSLKPEDTAVYYCNTAYAYSGRYDYWGQGTQVTVSS | high polyreactivity
35 | QVQLVESGGGLVQAGGSLRLSCAASGFIFGYYAMGWYRQAPGKERELVAAISSGSITTYADSVKGRFTISRDNAKNTVYLQMNSLKPEDTAVYYCNAVRWFFTFVSSSSGVGHGYWGQGTQVTVSS | low polyreactivity
36 | QVQLVESGGGLVQAGGSLRLSCAASGFIFGYYAMGWYRQAPGKERELVAAISSRGGSTYYADSVKGRFTISRDNAKNTVYLQMNSLIPEDTAVYYCAVRLVSFRHNFGQYDYWGQGTQLTVSS | high polyreactivity
37 | QVQLVESGGGLVQAGGSLRLSCAASGFIFGYYAMGWYRQAPGKERELVAGISWGGARTYYADSVKGRFTISRDNAKNTVYLQMNSLKPEDTAVYYCAATHYGHSISYWFDYWGQGTQVTVSS | high polyreactivity
38 | QVQLVESGGGLVQAGGSLRLSCAASGFIFHPYAMGWYRQAPGKERELVAAISWSGDGTYYADSVKGRFTISRDNAKNTVYLQMNSLKPEDTAVYYCNAGFYRSYYKSPMGYWGQGTQVTVSS | low polyreactivity
39 | QVQLVESGGGLVQAGGSLRLSCAASGFIFHRYAMGWYRQAPGKERELVASITRSGGSTYYADSVKGRFTISRDNAKNTVYLQMNSLKPEDTAVYYCAAQLPSYYKYPRHDYWGQGTQVTVSS | high polyreactivity
40 | QVQLVESGGGLVQAGGSLRLSCAASGFIFHVYAMGWYRQAPGKERELVARITSSGGNTFYADSVKGRFTISRDNAKNTVYLQMNSLKPEDTAVYYCAKRYRYSVGWPVKNSAFGYWGQGTQVTVSS | low polyreactivity
41 | QVQLVESGGGLVQAGGSLRLSCAASGFIFHYNAMGWYRQAPGKERELVAAISARGGGTYYADSVKGRFTISRDNAKNTVYLQMNSLKPEDTAVYYCAAGNYPLGDGYWGQGTQVTVSS | high polyreactivity
42 | QVQLVESGGGLVQAGGSLRLSCAASGFIFHYYAMGWYRQAPGKERELVAAISSGGGRTYYADSVKGRFTISRDNAKNTVYLLMNSLKPEDTAVYYCAARYAVNAWGGRRDYWGQGTEVTVSS | high polyreactivity
43 | QVQLVESGGGLVQAGGSLRLSCAASGFIFIINAMGWYRQAPGKERELVAGIRWSGGSTYYADSVKGRFTISRDNAKNTVYLQMNSLKPEDTAVYYCNKDRGSLTLYTYDYWGQGTQVTVSS | low polyreactivity
